Source: patent US20200024330A1

Columns and labels:
Assay in all cases: cell-based or functional assay
[1] = molecular target: HIV-1 Env of isolate MGRM-G-017 (subtype G) (HIV-1)
[2] = molecular target: HIV-1 IAVI-C22 envelope protein (Env) on pseudovirus (HIV-1)
[3] = molecular target: HIV-1 MGRM-C-024 Env (HIV-1)
[4] = molecular target: HIV-1 Env of isolate MGRM-D-020 (HIV-1)
[5] = molecular target: HIV-1 Env of isolate MGRM-D-013 (clade D) (HIV-1)
[6] = molecular target: HIV-1 Env of isolate MGRM-G-024 (subtype G) (HIV-1)
[7] = molecular target: HIV-1 98IN022 envelope glycoprotein (Env) on pseudovirus (HIV-1)
[8] = molecular target: HIV-1 Env of isolate MGRM-G-017 (clade G pseudovirus) (HIV-1)
[9] = molecular target: HIV-1 Env of pseudovirus APV_17, clade B (HIV-1)
[10] = molecular target: HIV-1 MGRM-C-022 Env (HIV-1)
[11] = molecular target: HIV-1 Env of isolate MGRM-G-014 (clade G pseudovirus) (HIV-1)
[12] = molecular target: HIV-1 JR-CSF envelope protein (Env) on pseudovirus (HIV-1) (UniProt P20871)
[13] = molecular target: HIV-1 Env of isolate MGRM-AE-002 (HIV-1)
[14] = molecular target: HIV-1 LAVI_C3 Env (HIV-1)
[15] = molecular target: HIV-1 Env of isolate MGRM-D-016 (clade D) (HIV-1)
[16] = molecular target: HIV-1 92RW008 envelope glycoprotein (Env) (HIV-1)
[17] = molecular target: HIV-1 Env of isolate MGRM-G-027 (clade G pseudovirus) (HIV-1)
[18] = molecular target: HIV-1 Env of isolate 92UG024 (HIV-1)
[19] = molecular target: HIV-1 Env of pseudovirus APV_6, clade B (HIV-1)
[20] = molecular target: HIV-1 Env of isolate MGRM-D-011 (clade D) (HIV-1)
[21] = molecular target: HIV-1 92RW024 envelope glycoprotein (Env) on pseudovirus (HIV-1)
[22] = molecular target: HIV-1 Env of isolate THR0.18 (HIV-1)
[23] = molecular target: HIV-1 Env of isolate MGRM-C-028 (HIV-1)
[24] = molecular target: HIV-1 Env of isolate MGRM-C-019 (HIV-1)
[25] = molecular target: HIV-1 JR-CSF Env E172A (HIV-1 (isolate JR-CSF)) (UniProt P20871)
[26] = molecular target: HIV-1 Env of isolate MGRM-AE-005 (CRF01_AE), on pseudovirus (HIV-1)
[27] = molecular target: HIV-1 Env of isolate MGRM-AE-007 (CRF01_AE), on pseudovirus (HIV-1)
[28] = molecular target: HIV-1 Env of isolate 94KE105 (subtype AC), on pseudovirus (HIV-1)
[29] = molecular target: HIV-1 Env of isolate MGRM-C-023 (HIV-1)
[30] = molecular target: HIV-1 Env of isolate MGRM-Chronic-B-002 (HIV-1)
[31] = molecular target: HIV-1 Env of isolate MGRM-AE-002 (CRF01_AE), on pseudovirus (HIV-1)
[32] = molecular target: HIV-1 JR-CSF Env D113A (HIV-1 (isolate JR-CSF)) (UniProt P20871)
[33] = molecular target: HIV-1 Env of isolate MGRM-C-025 (pseudovirus) (HIV-1 isolate MGRM-C-025, subtype C)
[34] = molecular target: HIV-1 Env of isolate 92UG046 (subtype D) (HIV-1)
[35] = molecular target: HIV-1 Env of isolate MGRM-C-010 (pseudovirus) (HIV-1 isolate MGRM-C-010, subtype C)
[36] = molecular target: HIV-1 Env of isolate 98IN022 (pseudovirus) (HIV-1 isolate 98IN022, subtype C)
[37] = molecular target: HIV-1 MGRM-Chronic-B-008 Env (pseudovirus) (HIV-1)
[38] = molecular target: HIV-1 Env of isolate MG RM-D-012 (subtype D) (HIV-1)
[39] = molecular target: HIV-1 Env of isolate MG RM-AG-012 (HIV-1)
[40] = molecular target: HIV-1 Env of isolate MGRM-C-013 (pseudovirus) (HIV-1 isolate MGRM-C-013, subtype C)
[41] = molecular target: HIV-1 Env of isolate MG RM-D-003 (subtype D) (HIV-1)

Chain of PGT-144 (4970_K22) (antibody) (VH): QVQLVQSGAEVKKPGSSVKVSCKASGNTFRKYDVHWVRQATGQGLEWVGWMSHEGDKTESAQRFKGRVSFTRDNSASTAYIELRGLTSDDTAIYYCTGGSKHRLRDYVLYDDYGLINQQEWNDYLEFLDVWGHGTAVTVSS
Chain of PGT-144 (4970_K22) (antibody) (VL): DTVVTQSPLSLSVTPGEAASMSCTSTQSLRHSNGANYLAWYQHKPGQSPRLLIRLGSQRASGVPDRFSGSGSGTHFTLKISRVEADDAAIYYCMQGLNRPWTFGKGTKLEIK
Chain of PGT-141 (4964_G22; 4993_K13) (antibody) (VH): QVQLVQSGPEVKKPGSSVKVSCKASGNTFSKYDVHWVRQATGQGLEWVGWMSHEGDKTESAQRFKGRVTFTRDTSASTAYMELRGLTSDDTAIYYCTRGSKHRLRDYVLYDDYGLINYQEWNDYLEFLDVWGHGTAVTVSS
Chain of PGT-141 (4964_G22; 4993_K13) (antibody) (VL): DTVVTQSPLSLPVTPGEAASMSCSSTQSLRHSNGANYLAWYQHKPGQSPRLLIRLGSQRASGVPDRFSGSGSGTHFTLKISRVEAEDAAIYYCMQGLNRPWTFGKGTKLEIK

Substance | neutralization IC50 [1] [µg/mL] | neutralization IC50 [6] [µg/mL] | Fold IC50 increase relative to wild-type [25] [fold] | Fold IC50 increase relative to wild-type [32] [fold] | IC50 (µg/mL) neutralization [33] [µg/mL] | IC50 (µg/mL), pseudovirus neutralization [34] [µg/mL] | IC50 (µg/mL) neutralization [35] [µg/mL] | IC50 (µg/mL) neutralization [36] [µg/mL] | IC50, pseudovirus neutralization [37] [µg/mL] | IC50 (µg/mL), pseudovirus neutralization [38] [µg/mL] | neutralization IC50 [39] [µg/mL] | IC50 (µg/mL) neutralization [40] [µg/mL] | IC50 (µg/mL), pseudovirus neutralization [41] [µg/mL] | other results
1496_C09 (PG9) (TCN-109) (antibody) | 0.104 | 0.163 |  |  |  |  |  |  |  |  |  |  |  | neutralization IC50 [2]: 24.9 µg/mL; IC50 [3]: 0.22 µg/mL; IC50 (µg/mL), pseudovirus neutralization [4]: 1.67 µg/mL; IC50 (µg/ml), pseudovirus neutralization [5]: 0.06 µg/mL; IC50 (µg/ml), pseudovirus neutralization [7]: 0.006 µg/mL; IC50 (µg/ml), pseudovirus neutralization [8]: 0.03 µg/mL; IC50 (µg/ml), pseudovirus neutralization [9]: 14.6 µg/mL; IC50 [10]: 0.19 µg/mL; IC50 (µg/ml), pseudovirus neutralization [11]: 6.32 µg/mL; neutralization IC50 [12]: < 0.0025 µg/mL; IC50 (µg/mL), pseudovirus neutralization [13]: 0.04 µg/mL; IC50 (µg/ml), pseudovirus neutralization [13]: 0.04 µg/mL; IC50 [14]: 1.45 µg/mL; IC50 (µg/ml), pseudovirus neutralization [15]: 0.1 µg/mL; IC50 (µg/ml), pseudovirus neutralization [16]: 0.01 µg/mL; IC50 (µg/ml), pseudovirus neutralization [17]: 0.01 µg/mL; IC50 (µg/mL), pseudovirus neutralization [18]: 1.86 µg/mL; IC50 (µg/ml), pseudovirus neutralization [19]: 0.12 µg/mL; IC50 (µg/ml), pseudovirus neutralization [20]: 0.06 µg/mL; IC50 (µg/ml), pseudovirus neutralization [21]: 0.18 µg/mL
5343_B08 (PGT-135) (antibody) |  |  | 1.3 | 0.8 |  |  |  |  |  |  |  |  |  | IC50 [22]: > 50 µg/mL; IC50 [23]: 1.47 µg/mL; IC50 [4]: > 50 µg/mL; IC50 [24]: 0.264 µg/mL; IC50, single-round pseudovirus neutralization [26]: > 50 µg/mL; IC50, single-round pseudovirus neutralization [27]: > 50 µg/mL; IC50, single-round pseudovirus neutralization [28]: 0.063 µg/mL; IC50 [29]: 0.051 µg/mL; IC50 [30]: > 50 µg/mL; IC50 [18]: 0.01 µg/mL; IC50, single-round pseudovirus neutralization [31]: > 50 µg/mL
5123_A06 (PGT-125) (antibody) |  |  | 1.8 | 1.1 | 42.5 | > 50 | > 50 | 22.1 | > 50 | > 50 | > 50 | > 50 | 0.065 | 
PGT-144 (4970_K22) (antibody) | 9.97 | 7.92 |  |  |  |  |  |  |  |  |  |  |  | 
5141_B17 (PGT-126) (antibody) |  |  | 0.7 | 1.2 | 0.786 | > 50 | > 50 | 0.279 | 5.89 | > 50 | > 50 | > 50 | 0.021 | 
5147_N06 (PGT-130) (antibody) |  |  | 1.4 | 0.8 |  |  |  |  |  |  |  |  |  | IC50 [22]: > 50 µg/mL; IC50 [23]: > 50 µg/mL; IC50 [4]: 24.7 µg/mL; IC50 [24]: 0.01 µg/mL; IC50, single-round pseudovirus neutralization [26]: 0.006 µg/mL; IC50, single-round pseudovirus neutralization [27]: 0.083 µg/mL; IC50, single-round pseudovirus neutralization [28]: 0.004 µg/mL; IC50 [29]: 0.151 µg/mL; IC50 [30]: > 50 µg/mL; IC50 [18]: > 50 µg/mL; IC50, single-round pseudovirus neutralization [31]: 1.53 µg/mL
PGV04 (antibody) | 0.065 | 0.033 |  |  |  |  |  |  |  |  |  |  |  | IC50 (µg/mL), pseudovirus neutralization [4]: 0.097 µg/mL; IC50 (µg/mL), pseudovirus neutralization [13]: 0.569 µg/mL; IC50 (µg/mL), pseudovirus neutralization [18]: 0.201 µg/mL
4877_D15 (PGT-122) (antibody) |  |  |  |  | 8.69 | > 50 | > 50 | 0.032 | 0.017 | > 50 | > 50 | 32.6 | > 50 | 
5114_A19 (PGT-128) (antibody) |  |  | 2.5 | 0.5 |  |  |  |  |  |  |  |  |  | IC50 [22]: > 50 µg/mL; IC50 [23]: 14.4 µg/mL; IC50 [4]: 0.011 µg/mL; IC50 [24]: 0.01 µg/mL; IC50, single-round pseudovirus neutralization [26]: 0.032 µg/mL; IC50, single-round pseudovirus neutralization [27]: > 50 µg/mL; IC50, single-round pseudovirus neutralization [28]: 0.007 µg/mL; IC50 [29]: 0.026 µg/mL; IC50 [30]: 0.036 µg/mL; IC50 [18]: > 50 µg/mL; IC50, single-round pseudovirus neutralization [31]: 0.522 µg/mL
PGT-141 (4964_G22; 4993_K13) (antibody) | 0.164 | 0.051 |  |  |  |  |  |  |  |  |  |  |  | 
4858_P08 (PGT-123) (antibody) |  |  | 1.1 | 1.1 | 13.3 | > 50 | > 50 | 0.011 | 0.01 | > 50 | > 50 | 14.9 | 3.74 | 
